Source: the supplement of paper PMC11246515
± gives the standard deviation of the averaged measurements.

Experiment: total protein half-life in vivo (active degradation + dilution); higher = more stable protein
[1] = E. coli NCM3722 delta-clpP delta-lon delta-hslV, growth: N-lim chemostat, doubling time 6 h
[2] = E. coli NCM3722 delta-clpP, growth: N-lim chemostat, doubling time 6 h
[3] = E. coli NCM3722 delta-hslV, growth: N-lim chemostat, doubling time 6 h
[4] = E. coli NCM3722 delta-lon, growth: N-lim chemostat, doubling time 6 h
[5] = E. coli NCM3722 delta-smpB, growth: N-lim chemostat, doubling time 6 h
[6] = wild type E. coli NCM3722, growth: C-lim chemostat, doubling time 3 h
[7] = wild type E. coli NCM3722, growth: C-lim chemostat, doubling time 6 h
[8] = wild type E. coli NCM3722, growth: C-lim chemostat, doubling time 12 h
[9] = wild type E. coli NCM3722, growth: N-lim chemostat, doubling time 6 h
[10] = wild type E. coli NCM3722, growth: P-lim chemostat, doubling time 6 h
[11] = wild type E. coli NCM3722, growth: P-lim chemostat, doubling time 12 h
[12] = wild type E. coli NCM3722, growth: N-lim chemostat, doubling time 12 h

MNKHTEHDTREHLLATGEQLCLQRGFTGMGLSELLKTAEVPKGSFYHYFRSKEAFGVAMLERHYAAYHQRLTELLQSGEGNYRDRILAYYQQTLNQFCQHGTISGCLTVKLSAEVCDLSEDMRSAMDKGARGVIALLSQALENGRENHCLTFCGEPLQQAQVLYALWLGANLQAKISRSFEPLENALAHVKNIIATPAV
total protein half-life in vivo [1]: 5.12 h | total protein half-life in vivo [2]: 4.66 ± 0.51 h | total protein half-life in vivo [3]: > 8 h | total protein half-life in vivo [4]: 6.18 h | total protein half-life in vivo [5]: 4.66 ± 0.14 h | total protein half-life in vivo [6]: 3.13 ± 0.15 h | total protein half-life in vivo [7]: 5.91 ± 0.12 h | total protein half-life in vivo [8]: 11.7 h | total protein half-life in vivo [9]: 7.06 h | total protein half-life in vivo [10]: 5.25 h | total protein half-life in vivo [11]: 12.7 h

MNKILLVDDDRELTSLLKELLEMEGFNVIVAHDGEQALDLLDDSIDLLLLDVMMPKKNGIDTLKALRQTHQTPVIMLTARGSELDRVLGLELGADDYLPKPFNDRELVARIRAILRRSHWSEQQQNNDNGSPTLEVDALVLNPGRQEASFDGQTLELTGTEFTLLYLLAQHLGQVVSREHLSQEVLGKRLTPFDRAIDMHISNLRRKLPDRKDGHPWFKTLRGRGYLMVSAS [P0AE88]
total protein half-life in vivo [1]: 5.73 ± 0.89 h | total protein half-life in vivo [2]: 4.96 ± 0.36 h | total protein half-life in vivo [3]: 4.848 ± 0.016 h | total protein half-life in vivo [5]: 5.11 ± 0.091 h | total protein half-life in vivo [6]: 3.28 ± 0.5 h | total protein half-life in vivo [7]: 5.44 ± 0.21 h | total protein half-life in vivo [8]: 11.4 ± 0.69 h | total protein half-life in vivo [9]: 6 ± 1.4 h | total protein half-life in vivo [12]: 8.76 ± 0.57 h | total protein half-life in vivo [10]: 6.01 ± 0.11 h | total protein half-life in vivo [11]: 10.9 ± 0.17 h

MNKKIHSLALLVNLGIYGVAQAQEPTDTPVSHDDTIVVTAAEQNLQAPGVSTITADEIRKNPVARDVSKIIRTMPGVNLTGNSTSGQRGNNRQIDIRGMGPENTLILIDGKPVSSRNSVRQGWRGERDTRGDTSWVPPEMIERIEVLRGPAAARYGNGAAGGVVNIITKKGSGEWHGSWDAYFNAPEHKEEGATKRTNFSLTGPLGDEFSFRLYGNLDKTQADAWDINQGHQSARAGTYATTLPAGREGVINKDINGVVRWDFAPLQSLELEAGYSRQGNLYAGDTQNTNSDSYTRSKYGDETNRLYRQNYALTWNGGWDNGVTTSNWVQYEHTRNSRIPEGLAGGTEGKFNEKATQDFVDIDLDDVMLHSEVNLPIDFLVNQTLTLGTEWNQQRMKDLSSNTQALTGTNTGGAIDGVSTTDRSPYSKAEIFSLFAENNMELTDSTIVTPGLRFDHHSIVGNNWSPALNISQGLGDDFTLKMGIARAYKAPSLYQTNPNYILYSKGQGCYASAGGCYLQGNDDLKAETSINKEIGLEFKRDGWLAGVTWFRNDYRNKIEAGYVAVGQNAVGTDLYQWDNVPKAVVEGLEGSLNVPVSETVMWTNNITYMLKSENKTTGDRLSIIPEYTLNSTLSWQAREDLSMQTTFTWYGKQQPKKYNYKGQPAVGPETKEISPYSIVGLSATWDVTKNVSLTGGVDNLFDKRLWRAGNAQTTGDLAGANYIAGAGAYTYNEPGRTWYMSVNTHF
total protein half-life in vivo [2]: 5.83 h | total protein half-life in vivo [6]: 3.068 ± 0.0056 h | total protein half-life in vivo [7]: 7.39 ± 0.36 h | total protein half-life in vivo [8]: 14.5 ± 2.1 h | total protein half-life in vivo [9]: 6.97 h | total protein half-life in vivo [10]: 6.6 h | total protein half-life in vivo [11]: 12.3 h

MNKRDAINHIRQFGGRLDRFRKSVGGSGDGGRNAPKRAKSSPKPVNRKTNVFNEQVRYAFHGALQDLKSKPFATFLTVMVIAISLTLPSVCYMVYKNVNQAATQYYPSPQITVYLQKTLDDDAAAGVVAQLQAEQGVEKVNYLSREDALGEFRNWSGFGGALDMLEENPLPAVAVVIPKLDFQGTESLNTLRDRITQINGIDEVRMDDSWFARLAALTGLVGRVSAMIGVLMVAAVFLVIGNSVRLSIFARRDSINVQKLIGATDGFILRPFLYGGALLGFSGALLSLILSEILVLRLSSAVAEVAQVFGTKFDINGLSFDECLLLLLVCSMIGWVAAWLATVQHLRHFTPE [P0AC30]
total protein half-life in vivo [1]: 6.31 ± 0.59 h | total protein half-life in vivo [2]: 6.43 ± 0.28 h | total protein half-life in vivo [3]: 6.04 ± 0.071 h | total protein half-life in vivo [4]: 6.55 ± 0.64 h | total protein half-life in vivo [5]: 6.02 ± 0.32 h | total protein half-life in vivo [6]: 3.17 ± 0.15 h | total protein half-life in vivo [7]: 5.86 ± 0.36 h | total protein half-life in vivo [8]: 12.5 ± 2.4 h | total protein half-life in vivo [9]: 6.42 ± 0.099 h | total protein half-life in vivo [12]: 12.3 ± 1.8 h | total protein half-life in vivo [10]: 5.99 ± 0.82 h | total protein half-life in vivo [11]: 13.5 ± 1.3 h

MNKSGKYLVWTVLSVMGAFALGYIALNRGEQINALWIVVASVCIYLIAYRFYGLYIAKNVLAVDPTRMTPAVRHNDGLDYVPTDKKVLFGHHFAAIAGAGPLVGPVLAAQMGYLPGMIWLLAGVVLAGAVQDFMVLFVSTRRDGRSLGELVKEEMGPTAGVIALVACFMIMVIILAVLAMIVVKALTHSPWGTYTVAFTIPLALFMGIYLRYLRPGRIGEVSVIGLVFLIFAIISGGWVAESPTWAPYFDFTGVQLTWMLVGYGFVAAVLPVWLLLAPRDYLSTFLKIGTIVGLAVGILIMRPTLTMPALTKFVDGTGPVWTGNLFPFLFITIACGAVSGFHALISSGTTPKMLANEGQACFIGYGGMLMESFVAIMALVSACIIDPGVYFAMNSPMAVLAPAGTADVVASAAQVVSSWGFSITPDTLNQIASEVGEQSIISRAGGAPTLAVGMAYILHGALGGMMDVAFWYHFAILFEALFILTAVDAGTRAARFMLQDLLGVVSPGLKRTDSLPANLLATALCVLAWGYFLHQGVVDPLGGINTLWPLFGIANQMLAGMALMLCAVVLFKMKRQRYAWVALVPTAWLLICTLTAGWQKAFSPDAKVGFLAIANKFQAMIDSGNIPSQYTESQLAQLVFNNRLDAGLTIFFMVVVVVLALFSIKTALAALKDPKPTAKETPYEPMPENVEEIVAQAKGAH
total protein half-life in vivo [1]: 5.72 h | total protein half-life in vivo [2]: 4.33 h | total protein half-life in vivo [3]: 4.49 ± 0.2 h | total protein half-life in vivo [5]: 4.96 ± 1.1 h | total protein half-life in vivo [6]: 3.36 ± 0.37 h | total protein half-life in vivo [7]: 5.34 ± 0.24 h | total protein half-life in vivo [8]: 11.7 ± 0.39 h | total protein half-life in vivo [9]: 5.33 ± 0.76 h | total protein half-life in vivo [10]: 5.517 ± 0.042 h | total protein half-life in vivo [11]: 10.3 ± 0.19 h

MNKSLVAVGVIVALGVVWTGGAWYTGKKIETHLEDMVAQANAQLKLTAPESNLEVSYQNYHRGVFSSQLQLLVKPIAGKENPWIKSGQSVIFNESVDHGPFPLAQLKKLNLIPSMASIQTTLVNNEVSKPLFDMAKGETPFEINSRIGYSGDSSSDISLKPLNYEQKDEKVAFSGGEFQLNADRDGKAISLSGEAQSGRIDAVNEYNQKVQLTFNNLKTDGSSTLASFGERVGNQKLSLEKMTISVEGKELALLEGMEISGKSDLVNDGKTINSQLDYSLNSLKVQNQDLGSGKLTLKVGQIDGEAWHQFSQQYNAQTQALLAQPEIANNPELYQEKVTEAFFSALPLMLKGDPVITIAPLSWKNSQGESALNLSLFLKDPATTKEAPQTLAQEVDRSVKSLDAKLTIPVDMATEFMTQVAKLEGYQEDQAKKLAKQQVEGASAMGQMFRLTTLQDNTITTSLQYANGQITLNGQKMSLEDFVGMFAMPALNVPAVPAIPQQ
total protein half-life in vivo [1]: 6.64 ± 0.32 h | total protein half-life in vivo [2]: 6.77 ± 0.68 h | total protein half-life in vivo [3]: 6.24 ± 0.28 h | total protein half-life in vivo [4]: 6.136 ± 0.016 h | total protein half-life in vivo [5]: 6 ± 0.23 h | total protein half-life in vivo [6]: 3.14 ± 0.049 h | total protein half-life in vivo [7]: 5.99 ± 0.08 h | total protein half-life in vivo [8]: 11.8 ± 1.2 h | total protein half-life in vivo [9]: 6.21 ± 0.15 h | total protein half-life in vivo [12]: 13.15 ± 0.042 h | total protein half-life in vivo [10]: 5.98 ± 0.13 h | total protein half-life in vivo [11]: 12.9 ± 0.87 h

MNKSMLAGIGIGVAAALGVAAVASLNVFERGPQYAQVVSATPIKETVKTPRQECRNVTVTHRRPVQDENRITGSVLGAVAGGVIGHQFGGGRGKDVATVVGALGGGYAGNQIQGSLQESDTYTTTQQRCKTVYDKSEKMLGYDVTYKIGDQQGKIRMDRDPGTQIPLDSNGQLILNNKV [P0AB35]
total protein half-life in vivo [1]: 0.776 ± 0.14 h | total protein half-life in vivo [2]: 0.716 h | total protein half-life in vivo [5]: 0.623 h | total protein half-life in vivo [6]: 0.834 h | total protein half-life in vivo [9]: 0.945 h | total protein half-life in vivo [10]: 0.416 h | total protein half-life in vivo [11]: 1.21 h
